± gives the uncertainty stated by the source.

38 sequences from the supplement of paper PMC7877785 can be followed below.

A short description of the data set: self-splicing fitness, log relative to wild type (ln ratio); higher = more splicing; Tetrahymena group I intron in knt gene, E. coli kanamycin selection, DiMSum; sequences stand for … in CUCUCU…GGAGGGAAAAGUUAUCAGGCAUGCACCUGGUAGCUAGUCUUUAAACCAAUAGAUUGCAUCGGUUUAAAAGGCAAGACCGUCAAAUUGCGGGAAAGGGGUCAACAGCCGUUCAGUACCAAGUCUCAGGGGAAACUUUGAGAUGGCCUUGCAAAGGGUAUGGUAAUAAGCUGACGGACAUGGUCCUAACCACGCAGCCAAGUCCUAAGUCAACAGAUCUUCUGUUGAUAUGGAUGCAGUUCACAGACUAAAUGUCGGUCGGGGAAGAUGUAUUCUUCUCAUAAGAUAUAGUCGGACCUCUCCUUAAUGGGAGCUAGCGGAUGAAGUGAUGCAACACUGGAGCCGCUGGGAACUAAUUUGUAUGCGAAAGUAUAUUGAUUAGUUUUGGAGUACUCGUGGUCG
In short, it runs like this: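 A randomised library covering all eight P1ex-region intron nucleotides was built with the intron in the knt kanamycin-resistance gene on pET-22b(+) and held in E. coli BL21(DE3). Cells were grown overnight at 37°C or 30°C on LB agar, with or without 25 μg/mL kanamycin, plus 100 μg/mL carbenicillin, 50 μM IPTG and 0.2% rhamnose, and pooled colonies were amplicon-sequenced on an Illumina HiSeq 2500. DiMSum fitness is the error-weighted combination of wild-type-normalised replicate fold changes, kanamycin versus none.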

Regarding AUCUAGCAAUAUUACGAGGA, the “self-splicing fitness (ln)” value is, setting by setting: (30 °C) -2.83 ± 0.32; (37 °C) -2.01 ± 0.21.

Regarding AUCUAGCAAUAUUACGAGGU, the “self-splicing fitness (ln)” value is -5.03 ± 0.45 (30 °C) and -3.28 ± 0.43 (37 °C).

Turning to AUCUAGCAAUAUUACGAUCG, the “self-splicing fitness (ln)” value reads like this: (30 °C) -3.35 ± 0.24; (37 °C) -1.77 ± 0.27.

For the sequence AUCUAGCAAUAUUACGCACA, the “self-splicing fitness (ln)” value was -0.774 ± 0.11 (30 °C) and 0.129 ± 0.12 (37 °C).

With AUCUAGCAAUAUUACGCCCC, the “self-splicing fitness (ln)” value is, setting by setting: (30 °C) -0.911 ± 0.15; (37 °C) 0.223 ± 0.22.

As for AUCUAGCAAUAUUACGCCGG, under “37 °C”, the “self-splicing fitness (ln)” value is -1.25 ± 0.34.

For the sequence AUCUAGCAAUAUUACGCUGA, the “self-splicing fitness (ln)” value by setting is: (30 °C) -1.71 ± 0.18; (37 °C) -0.501 ± 0.13.

In the case of AUCUAGCAAUAUUACGGAAA, the “self-splicing fitness (ln)” value was -2.23 ± 0.2 (30 °C) and -1.66 ± 0.18 (37 °C).

Turning to AUCUAGCAAUAUUACGGACG, the “self-splicing fitness (ln)” value by setting is: (30 °C) -0.422 ± 0.07; (37 °C) 0.212 ± 0.094.

Regarding AUCUAGCAAUAUUACGGCCG, the “self-splicing fitness (ln)” value reads like this: (30 °C) -1.43 ± 0.23; (37 °C) -0.562 ± 0.38.

AUCUAGCAAUAUUACGGCUA: the “self-splicing fitness (ln)” value by setting is: (30 °C) -3.6 ± 0.28; (37 °C) -2.4 ± 0.23.

Regarding AUCUAGCAAUAUUACGGGAC, the “self-splicing fitness (ln)” value (30 °C) is -2.44 ± 0.17 and the “self-splicing fitness (ln)” value (37 °C) was -1.03 ± 0.13.

Consider AUCUAGCAAUAUUACGGGAG, for which the “self-splicing fitness (ln)” value is, setting by setting: (30 °C) -0.833 ± 0.076; (37 °C) -0.293 ± 0.092.

Turning to AUCUAGCAAUAUUACGGGGC, the “self-splicing fitness (ln)” value (30 °C) was -2.42 ± 0.47.

Regarding AUCUAGCAAUAUUACGGGGU, the “self-splicing fitness (ln)” value by setting is: (30 °C) -3 ± 0.16; (37 °C) -2.98 ± 0.2.

In the case of AUCUAGCAAUAUUACGUCAU, the “self-splicing fitness (ln)” value runs as follows: (30 °C) -1.41 ± 0.11; (37 °C) -0.955 ± 0.12.

Take AUCUAGCAAUAUUACGUUAA: the “self-splicing fitness (ln)” value is -1.84 ± 0.23 (30 °C) and -1.82 ± 0.34 (37 °C).

Consider AUGAAGCAAUAUUACGAACU, for which the “self-splicing fitness (ln)” value is -0.587 ± 0.074 (30 °C) and 0.606 ± 0.098 (37 °C).

Turning to AUGAAGCAAUAUUACGAAUC, for the setting “30 °C”, the “self-splicing fitness (ln)” value is -1.68 ± 0.23.

Turning to AUGAAGCAAUAUUACGACAA, the “self-splicing fitness (ln)” value runs as follows: (30 °C) 0.158 ± 0.11; (37 °C) 0.0912 ± 0.12.

On to AUGAAGCAAUAUUACGACCU, for which the “self-splicing fitness (ln)” value by setting is: (30 °C) 0.893 ± 0.14; (37 °C) 1.08 ± 0.15.

On to AUGAAGCAAUAUUACGAGCU, for which the “self-splicing fitness (ln)” value is -1.52 ± 0.12 (30 °C) and -0.173 ± 0.14 (37 °C).

For AUGAAGCAAUAUUACGCCCC, the “self-splicing fitness (ln)” value runs as follows: (30 °C) 0.963 ± 0.19; (37 °C) 0.00961 ± 0.23.

In the case of AUGAAGCAAUAUUACGCGCA, the “self-splicing fitness (ln)” value runs as follows: (30 °C) 0.498 ± 0.096; (37 °C) 0.526 ± 0.12.

Consider AUGAAGCAAUAUUACGCGGU, for which the “self-splicing fitness (ln)” value was -2.88 ± 0.24 (30 °C) and -1.71 ± 0.2 (37 °C).

Regarding AUGAAGCAAUAUUACGCGUU, the “self-splicing fitness (ln)” value by setting is: (30 °C) -2.78 ± 0.12; (37 °C) -0.429 ± 0.093.

For the sequence AUGAAGCAAUAUUACGCUCA, the “self-splicing fitness (ln)” value was determined as 0.436 ± 0.068 (30 °C) and 0.555 ± 0.082 (37 °C).

For the sequence AUGAAGCAAUAUUACGCUGC, the “self-splicing fitness (ln)” value is -2.7 ± 0.24 (30 °C) and -2.42 ± 0.44 (37 °C).

Turning to AUGAAGCAAUAUUACGGAAA, the “self-splicing fitness (ln)” value runs as follows: (30 °C) -2.48 ± 0.15; (37 °C) -0.666 ± 0.15.

With AUGAAGCAAUAUUACGGAUG, the “self-splicing fitness (ln)” value was -0.705 ± 0.063 (30 °C) and 0.152 ± 0.076 (37 °C).

Regarding AUGAAGCAAUAUUACGGCCG, the “self-splicing fitness (ln)” value by setting is: (30 °C) -0.163 ± 0.18; (37 °C) 0.947 ± 0.26.

Take AUGAAGCAAUAUUACGGCGC: the “self-splicing fitness (ln)” value by setting is: (30 °C) -0.339 ± 0.074; (37 °C) 0.665 ± 0.11.

AUGAAGCAAUAUUACGGCUA: the “self-splicing fitness (ln)” value was found to be 0.423 ± 0.092 (30 °C) and 0.486 ± 0.11 (37 °C).

As for AUGAAGCAAUAUUACGGGGU, the “self-splicing fitness (ln)” value by setting is: (30 °C) -2.79 ± 0.23; (37 °C) -1.21 ± 0.17.

As to AUGAAGCAAUAUUACGGGUA, the “self-splicing fitness (ln)” value reads like this: (30 °C) -1.01 ± 0.097; (37 °C) -0.761 ± 0.13.

Turning to AUGAAGCAAUAUUACGUCGC, the “self-splicing fitness (ln)” value is, setting by setting: (30 °C) -2.24 ± 0.14; (37 °C) -1.28 ± 0.18.

AUGAAGCAAUAUUACGUCGG: the “self-splicing fitness (ln)” value (30 °C) was -0.496 ± 0.1 and the “self-splicing fitness (ln)” value (37 °C) is -0.498 ± 0.11.

Take AUGAAGCAAUAUUACGUGAA: the “self-splicing fitness (ln)” value runs as follows: (30 °C) -1.99 ± 0.088; (37 °C) -0.731 ± 0.12.
